What was measured:
[1] = molecular target: human CD3 on human T cells (human) (UniProt P07766); assay: competition with AF488 SP-34 tracer on human pan T cells, flow cytometry
[2] = molecular target: human CD3 on human T cells (human) (UniProt P07766); assay: Kd = IC50/(1+[T]/KdT) from competition with AF488 SP-34 on human pan T cells
[3] = molecular target: recombinant human CD3ε (1-27) peptide with a C-terminal Tencon25 fusion (human) (UniProt P07766); assay: ProteOn SPR, mAb captured by anti-human Fc, antigen as analyte
Chain of recombinant human CD3ε (1-27) peptide with a C-terminal Tencon25 fusion (human) (P07766 22-48): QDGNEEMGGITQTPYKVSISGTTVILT

Chain of human CD3 on human T cells (human) (P07766 23-207 limits assumed): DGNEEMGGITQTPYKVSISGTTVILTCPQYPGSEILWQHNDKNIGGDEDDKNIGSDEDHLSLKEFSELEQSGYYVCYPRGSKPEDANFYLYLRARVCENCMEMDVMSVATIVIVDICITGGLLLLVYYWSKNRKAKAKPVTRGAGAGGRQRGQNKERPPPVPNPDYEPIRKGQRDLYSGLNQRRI

| Binder | IC50 [1] | Kd [2] | Kd [3] | koff [3] | kon [3] |
| --- | --- | --- | --- | --- | --- |
| CD3B312 (antibody, V domains shown) VH: QVQLQQSGPRLVRPSQTLSLTCAISGDSVFNNNAAWSWIRQSPSRGLEWLGRTYYRSKWLYDYAVSVKSRITVNPDTSRNQFTLQLNSVTPEDTALYYCARGYSSSFDYWGQGTLVTVSS VL: QSALTQPASVSGSPGQSITISCTGTSSNIGTYKFVSWYQQHPDKAPKVLLYEVSKRPSGVSSRFSGSKSGNTASLTISGLQAEDQADYHCCSYAGSGTLLFGGGTKLTVL | – | – | 0.0206 µM | 0.00187 s⁻¹ | 90800 M⁻¹ s⁻¹ |
| BLW-2E6 variant CD3H219/CD3L160 (LC C91L) (antibody, V domains shown) VH: QVQLQQSGPRLVRPSQTLSLTCAISGDSVFNNNAAWSWIRQSPSRGLEWLGRTYYRSKWLYDYAVSVKSRITVNPDTSRNQFTLQLNSVTPEDTALYYCARGYSSSFDYWGQGTLVTVSS VL: QSALTQPASVSGSPGQSITISCTGTSSNIGTYKFVSWYQQHPDKAPKVLLYEVSKRPSGVSSRFSGSKSGNTASLTISGLQAEDQADYHCLSYAGSGTLLFGGGTKLTVL | – | – | 0.0411 µM | 0.00405 s⁻¹ | 98400 M⁻¹ s⁻¹ |
| BLW-2E6 variant CD3H219/CD3L137 (antibody, V domains shown) VH: QVQLQQSGPRLVRPSQTLSLTCAISGDSVFNNNAAWSWIRQSPSRGLEWLGRTYYRSKWLYDYAVSVKSRITVNPDTSRNQFTLQLNSVTPEDTALYYCARGYSSSFDYWGQGTLVTVSS VL: QSALTQPASVSGSPGQSITISCTGTSSNIGTYKFVSWYQQHPGKAPKVMIYEVSKRPSGVSNRFSGSKSGNTASLTISGLQAEDEADYYCCSYAGSGTLLFGGGTKLTVL | – | – | 0.0329 µM | 0.00202 s⁻¹ | 61300 M⁻¹ s⁻¹ |

Next, values leading:

| IC50 [1] | Kd [2] | Kd [3] | koff [3] | kon [3] | Binder |
| --- | --- | --- | --- | --- | --- |
| 0.409 µM | 0.103 µM | – | – | – | monovalent CD3B376 construct (bispecific antibody, part only; not given: unnamed target arm, not shown: another chain or arm of the molecule; small tags and cut ends) heavy: QVQLQQSGPRLVRPSQTLSLTCAISGDSVFNNNAAWSWIRQSPSRGLEWLGRTYYRSKWLYDYAVSVKSRITVNPDTSRNQFTLQLNSVTPEDTALYYCARGYSSSFDYWGQGTLVTVSSASTKGPSVFPLAPCSRSTSESTAALGCLVKDYFPEPVTVSWNSGALTSGVHTFPAVLQSSGLYSLSSVVTVPSSSLGTKTYTCNVDHKPSNTKVDKRVESKYGPPCPPCPAPEAAGGPSVFLFPPKPKDTLMISRTPEVTCVVVDVSQEDPEVQFNWYVDGVEVHNAKTKPREEQFNSTYRVVSVLTVLHQDWLNGKEYKCKVSNKGLPSSIEKTISKAKGQPREPQVYTLPPSQEEMTKNQVSLTCLVKGFYPSDIAVEWESNGQPENNYKTTPPVLDSDGSFLLYSKLTVDKSRWQEGNVFSCSVMHEALHNHYTQKSLSLSLGK light: QSALTQPASVSGSPGQSITISCTGTSSNIGTYKFVSWYQQHPDKAPKVLLYEVSKRPSGVSSRFSGSKSGNTASLTISGLQAEDQADYHCVSYAGSGTLLFGGGTKLTVLGQPKAAPSVTLFPPSSEELQANKATLVCLISDFYPGAVTVAWKADSSPVKAGVETTTPSKQSNNKYAASSYLSLTPEQWKSHRSYSCQVTHEGSTVEKTVAPTECS |
| 1.01 µM | 0.254 µM | – | – | – | monovalent CD3B450 construct (bispecific antibody, part only; not given: unnamed target arm, not shown: another chain or arm of the molecule; small tags and cut ends) heavy: QVQLQQSGPGLVKPSQTLSLTCAISGDSVFNNNAAWSWIRQSPSRGLEWLGRTYYRSKWLYDYAVSVKSRITINPDTSKNQFSLQLNSVTPEDTAVYYCARGYSSSFDYWGQGTLVTVSSASTKGPSVFPLAPCSRSTSESTAALGCLVKDYFPEPVTVSWNSGALTSGVHTFPAVLQSSGLYSLSSVVTVPSSSLGTKTYTCNVDHKPSNTKVDKRVESKYGPPCPPCPAPEAAGGPSVFLFPPKPKDTLMISRTPEVTCVVVDVSQEDPEVQFNWYVDGVEVHNAKTKPREEQFNSTYRVVSVLTVLHQDWLNGKEYKCKVSNKGLPSSIEKTISKAKGQPREPQVYTLPPSQEEMTKNQVSLTCLVKGFYPSDIAVEWESNGQPENNYKTTPPVLDSDGSFLLYSKLTVDKSRWQEGNVFSCSVMHEALHNHYTQKSLSLSLGK light: QSALTQPASVSGSPGQSITISCTGTSSNIGTYKFVSWYQQHPGKAPKVMIYEVSKRPSGVSNRFSGSKSGNTASLTISGLQAEDEADYYCVSYAGSGTLLFGGGTKLTVLGQPKAAPSVTLFPPSSEELQANKATLVCLISDFYPGAVTVAWKADSSPVKAGVETTTPSKQSNNKYAASSYLSLTPEQWKSHRSYSCQVTHEGSTVEKTVAPTECS |
| – | – | 0.0233 µM | 0.00237 s⁻¹ | 102000 M⁻¹ s⁻¹ | CD3B376 (antibody, human IgG4 S228P, lambda, F234A L235A, V domains shown) VH: QVQLQQSGPRLVRPSQTLSLTCAISGDSVFNNNAAWSWIRQSPSRGLEWLGRTYYRSKWLYDYAVSVKSRITVNPDTSRNQFTLQLNSVTPEDTALYYCARGYSSSFDYWGQGTLVTVSS VL: QSALTQPASVSGSPGQSITISCTGTSSNIGTYKFVSWYQQHPDKAPKVLLYEVSKRPSGVSSRFSGSKSGNTASLTISGLQAEDQADYHCVSYAGSGTLLFGGGTKLTVLG |
